# Reference: US20060093553A1, “Cd26-based therapies for cancers and immune disease” (priority 2002, published 2006)
# B1: sCD26/DPPIV^−: mutant sCD26 without DPPIV activity, Ser630 replaced by Ala at the active site (protein)
# chain: MKGLLGAAALVTIITVPVVLLNKGTDDATADSRKTYTLTDYLKNTYRLKLYSLRWISDHEYLYKQENNILVFNAEYGNSSVFLENSTFDEFGHSINDYSISPDGQFILLEYNYVKQWRHSYTASYDIYDLNKRQLITEERIPNNTQWVTWSPVGHKLAYVWNNDIYVKIEPNLPSYRITWTGKEDIIYNGITDWVYEEEVFSAYSALWWSPNGTFLAYAQFNDTEVPLIEYSFYSDESLQYPKTVRVPYPKAGAVNPTVKFFVVNTDSLSSVTNATSIQITAPASMLIGDHYLCDVTWATQERISLQWLRRIQNYSVMDICDYDESSGRWNCLVARQHIEMSTTGWVGRFRPSEPHFTLDGNSFYKIISNEEGYRHICYFQIDKKDCTFITKGTWEVIGIEALTSDYLYYISNEYKGMPGGRNLYKIQLSDYTKVTCLSCELNPERCQYYSVSFSKEAKYYQLRCSGPGLPLYTLHSSVNDKGLRVLEDNSALDKMLQNVQMPSKKLDFIILNETKFWYQMILPPHFDKSKKYPLLLDVYAGPCSQKADTVFRLNWATYLASTENIIVASFDGRGSGYQGDKIMHAINRRLGTFEVEDQIEAARQFSKMGFVDNKRIAIWGWAYGGYVTSMVLGSGSGVFKCGIAVAPVSRWEYYDSVYTERYMGLPTPEDNLDHYRNSTVMSRAENFKQVEYLLIHGTADDNVHFQQSAQISKALVDVGVDFQAMWYTDEDHGIASSTAHQHIYTHMSHFIKQCFSLP
# Legend:
# Assay type in all cases: cell-based, Human
# PBMC = experiment: TT-induced proliferation of PBMC, time-course ([3H]TdR incorporation); conditions: DPPIV-deficient mutant sCD26 in PBMC time-course
# From the text: Human PBMC, collected from healthy adult volunteers who were immunized with TT within two years before donation, were isolated by centrifugation on Ficoll/Paque (Amersham Pharmacia Biotech, Piscataway, N.J.). PBMC were directly used for the time-course studies. For the reconstitution studies, PBMC were further purified into T cell fractions and APC fractions. To obtain a highly purified T cell population, PBMC were separated into an E rosette-positive (E^+) population and were used as resting T cells as determined by flow cytometric analysis (FACSCalibur; Nippon BD Biosciences, Tokyo, Japan) using an FITC-labeled anti-CD3 mAb (BD PharMingen, San Diego, Calif.) with purity being >95%. To obtain APC, an E rosette-negative (E^−) population was adhered to plastic plates for 4 h at 37° C., and adherent cells were used as APC. Monocytes were either purified by a flow cytometer on the basis of PE-labeled anti-CD14 mAb (BD PharMingen)-oriented parameter, or by negative selection through the use of immunomagnetic beads coated with an anti-CD3, CD7, CD19, CD45RA, CD56, and IgE mAb Qailtenyi Biotec, Auburn, Calif.) with purity being >95%. […]
# T-cell proliferation induced by APC was measured by [^3H]TdR (ICN Radiochemicals, Irvine, Calif.) uptake. […]
# [1] = test system: PBMC subpopulations (CD3, CD14, CD19, CD56); experiment: sCD26-OG incorporation into PBMC subpopulations (flow cytometry); conditions: 24 h, presence or absence of TT; FIG. 9
# Procedure: Assessment of the PBMC population that takes up sCD26-OG was performed with PE-conjugated anti-CD3, anti-CD14, anti-CD19, and anti-CD56 mAbs (10 μg/ml). For these experiments, 1×10^6 PBMC/well were incubated in standard medium containing sCD26-OG for 24 h with or without preincubation with TT. Cells were then washed twice in ice-cold PBS, followed by incubation for 2 min in acidic PBS (pH 3.0) to strip any sCD26-OG attached to the cell surface. Cells were subsequently washed in ice-cold PBS and were incubated with mouse Ig isotypes (1 μg/ml) to block nonspecific binding; this was followed by reaction with PE-conjugated mabs.
# (§1) Flow cytometric analysis of 10,000 viable cells was conducted on FACSCalibur (BD Biosciences, Mountain View, Calif.). Each experiment was repeated at least three times, and the results were provided in the form of a histogram of a representative experiment, or increased mean percent±SE fluorescent intensity compared with control or untreated cells.
# monocytes = experiment: Confocal laser microscopy of sCD26 uptake
# Procedure: For fluorescent microscopy studies of uptake of sCD26 by monocytes; purified monocytes were incubated with sCD26-OG (1 μg/ml) with or without preincubation with. TT (0.5 μg/ml). Cells were then washed in ice-cold PBS twice and were incubated in acidic PBS (pH 3.0) to strip any sCD26-OG attached to the cell surface. The cells were then attached to microslide glass (Matsunami Glass, Tokyo, Japan) and fixed with 3% paraformaldehyde in PBS for 15 min at room temperature. Cells were blocked with mouse Ig isotypes (1 μg/ml) for 30 min at 4° C., followed by incubation with biotinylated anti-CD14 (10 μg/ml) for 30 min at 4° C., then washed with ice-cold PBS twice and incubated with streptavidin-conjugated Texas red conjugate (1/200; Beckman Coulter) for 30 min at 4° C. In studies of sCD26 uptake via M6P/IGF-IIR on monocytes, purified monocytes were incubated with or without TT for 16 h, and sCD26-OG and M6P/IGF-IIR-red were added to the culture well after being blocked with mouse Ig isotypes (1 μg/ml) for 30 min at 4° C. Cells were then incubated for 30 min at 4° C. For detection of cell surface colocalization, cells were washed in ice-cold PBS twice and were attached to microslide glass, followed by fixation with 3% paraformaldehyde in PBS for 15 min at room temperature. […]
# [2] = test system: monocytes and purified T cells; experiment: Reconstitution/fixation study: T cell proliferation with preincubated monocytes ([3H]TdR); conditions: TT-pulsed monocytes fixed with 0.05% glutaraldehyde before or after sCD26; FIGS. 12A, 12B
# Procedure: All cells were preincubated in the standard medium for 24 h to minimize the risk of potential interference from sCD26 present in human serum (Tanaka et al., 1993). In these studies, cells were incubated in 96-well plates (200 μl/well; Falcon, Franklin Lakes, N.J.). For the time-course study, 1.0×10^5 PBMC were incubated with 0.5 μg/ml TT for 16 h. Then, 0.5 μg/ml sCD26 was added to the well and was incubated for 0, 6, 12, 24, 48, 72, and 96 h. The day when the first sCD26 was added to the culture well was defined as day 0 of culture. All assays in proliferation experiments were performed on day 7 of culture after cells were incubated at 37° C. in a 5% CO2 humidified atmosphere. For the reconstitution study, 0.5×10^6 of monocytes were preincubated with TT, at a concentration of 0.5 μg/ml with different concentrations of sCD26 for 24 h. Monocytes were washed with PBS, and then 1×10^4/well of preincubated monocytes were subjected to the assay with 1×10^5/well of purified T cells from the same donor as the prepared monocytes. […]
# T-cell proliferation induced by APC was measured by [^3H]TdR (ICN Radiochemicals, Irvine, Calif.) uptake. Seven-day-incubated cells were pulsed with 1 μCi/well of [^3H]TdR 8 h before harvesting onto a glass-fiber filter (Wallac, Turk, Finland), and the incorporated radioactivity was quantified by a liquid scintillation counter (Wallac).
# [3] = test system: CD86 expression on monocytes; experiment: Surface expression on monocytes (flow cytometry); conditions: after TT and sCD26 stimulation; FIG. 13
# Procedure: In studies assessing the expression of CD80, CD86, and HLA-DR on purified monocytes (0.5×10^6 monocytes/well), monocytes were preincubated with or without TT (0.5 μg/ml) for 16 h. Following incubation with sCD26 (0.5 μg/ml) for 24 h, FITC-conjugated CD80, CD86, and HLA-DR mAbs (10 μg/ml) were used with PE-conjugated anti-CD14 (10 μg/ml) to gate exclusively on the monocyte population. In experiments assessing the effect of M6P on cellular uptake of sCD26, purified monocytes (0.5×10^6 monocytes/well) were incubated with the appropriate concentration of M6P in the presence or absence of sCD26-OG for 24 h in standard medium. Cells were then washed twice in ice-cold PBS, followed by incubation for 2 min in acidic PBS (pH 3.0) to strip any sCD26-OG attached to the cell surface. Cells were washed in ice-cold PBS and were incubated with mouse Ig isotypes (1 μg/ml) to block nonspecific binding; this was followed by reaction with PE-conjugated anti-CD14 (10 μg/ml) to gate exclusively on monocyte population.
# as §1
# CD86 mRNA in monocytes = experiment: Relative quantitative RT-PCR assay; conditions: monocytes with TT 16 h then sCD26 0.5 μg/ml 24 h
molecule,measurement,setting,value
B1,enhancing effect of TT-induced T cell proliferation,PBMC,not observed
same,PBMC population that takes up sCD26,[1],preferentially taken up by CD14-positive monocytes
same,intracellular detection of sCD26 in monocytes,monocytes; 36 h after incubation of monocytes with sCD26,no longer detectable intracellularly
same,uptake by monocytes (confocal microscopy),monocytes; sCD26-OG 1 μg/ml,clearly taken up by monocytes
same,"enhanced T cell proliferation, fixation study",[2],seen only when the monocytes were incubated with sCD26/DPPIV^+ before fixation
same,CD86 expression on monocytes,[3],did not affect CD86 expression
same,CD86 mRNA levels (RT-PCR),CD86 mRNA in monocytes,did not demonstrate enhanced CD86 mRNA levels
same,CD86 mRNA levels (RT-PCR),CD86 mRNA in monocytes; listed as sCD26/DPPIV^+,increased mRNA levels
